# Where “and” joins values, the source holds several entries; their conditions need not be identical. Equal values may be shown once.
# Target: IL-12 receptor on mouse lineage negative bone marrow cells (mouse) (UniProt Q60837)
# Experiment: cell-based or functional assay
# Chain of IL-12 receptor on mouse lineage negative bone marrow cells (mouse) (Q60837 20-738, chain 1 of 2): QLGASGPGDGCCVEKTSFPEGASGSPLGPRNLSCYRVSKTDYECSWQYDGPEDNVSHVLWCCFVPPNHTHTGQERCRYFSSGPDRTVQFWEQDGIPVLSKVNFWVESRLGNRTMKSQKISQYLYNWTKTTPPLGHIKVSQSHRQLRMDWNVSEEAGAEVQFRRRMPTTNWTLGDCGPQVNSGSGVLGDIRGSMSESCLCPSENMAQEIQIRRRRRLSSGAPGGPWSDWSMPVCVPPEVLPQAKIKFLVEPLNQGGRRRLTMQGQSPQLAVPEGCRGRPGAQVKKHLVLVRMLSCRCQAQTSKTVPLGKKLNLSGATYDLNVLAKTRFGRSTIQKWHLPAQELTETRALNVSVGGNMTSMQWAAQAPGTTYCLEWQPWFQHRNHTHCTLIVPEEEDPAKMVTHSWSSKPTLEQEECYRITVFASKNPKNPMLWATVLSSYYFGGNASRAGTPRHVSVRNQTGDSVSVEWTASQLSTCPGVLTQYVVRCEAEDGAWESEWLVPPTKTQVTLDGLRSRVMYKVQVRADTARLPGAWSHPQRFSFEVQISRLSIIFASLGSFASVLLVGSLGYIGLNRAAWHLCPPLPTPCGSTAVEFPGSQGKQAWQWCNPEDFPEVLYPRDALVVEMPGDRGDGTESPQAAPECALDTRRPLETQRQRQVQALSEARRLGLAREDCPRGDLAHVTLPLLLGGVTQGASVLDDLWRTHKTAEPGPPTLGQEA
# Chain of IL-12 receptor on mouse lineage negative bone marrow cells (mouse) (P97378 24-874, chain 2 of 2, further chain): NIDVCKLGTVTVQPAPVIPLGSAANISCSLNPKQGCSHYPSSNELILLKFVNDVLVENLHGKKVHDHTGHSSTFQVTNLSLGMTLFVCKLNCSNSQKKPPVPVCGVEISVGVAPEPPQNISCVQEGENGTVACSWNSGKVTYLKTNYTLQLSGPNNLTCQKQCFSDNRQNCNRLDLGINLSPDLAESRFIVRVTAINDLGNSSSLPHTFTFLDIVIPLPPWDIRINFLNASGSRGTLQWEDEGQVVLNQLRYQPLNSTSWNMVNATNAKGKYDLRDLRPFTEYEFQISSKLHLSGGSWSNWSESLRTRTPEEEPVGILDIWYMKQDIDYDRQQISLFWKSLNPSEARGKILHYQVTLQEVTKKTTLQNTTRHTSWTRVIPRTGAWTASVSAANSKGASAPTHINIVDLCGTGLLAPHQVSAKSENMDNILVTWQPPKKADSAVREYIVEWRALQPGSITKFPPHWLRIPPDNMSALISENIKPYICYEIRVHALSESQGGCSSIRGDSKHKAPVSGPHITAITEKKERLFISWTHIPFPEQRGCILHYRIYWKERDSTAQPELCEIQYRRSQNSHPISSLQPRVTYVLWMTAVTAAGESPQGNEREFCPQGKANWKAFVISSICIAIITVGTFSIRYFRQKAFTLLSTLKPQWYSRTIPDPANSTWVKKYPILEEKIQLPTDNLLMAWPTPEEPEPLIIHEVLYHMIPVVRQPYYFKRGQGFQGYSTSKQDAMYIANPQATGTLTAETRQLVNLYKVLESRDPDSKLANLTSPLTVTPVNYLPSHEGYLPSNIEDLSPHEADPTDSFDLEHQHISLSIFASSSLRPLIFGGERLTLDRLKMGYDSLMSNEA
substance,measurement,value
exogenous IL-12 (IL-12 ligand) injected into C57BL/6 mice in Example 7,"Fold-Increase in Lin- IL-12R+ cells (FACS of bone marrow after in vivo IL-12, 100 ng/mouse)",5.4 fold and 3.5 fold

# Source: patent publication US20130259828A1
